The source of these data is article PMC10732398 (PLOS Pathogens, 2023).

The target of assay [1] is BG505 SOSIP env trimer (HIV-1 BG505). Description: SPR. For orientation: SPR reads the build-up and loss of mass on a sensor chip optically.
Assay [2] has as its target BG505 gp120 (monomeric gp120) (HIV-1 BG505). Kind of assay: SPR.
For assay [3], the target named is CD4 D1D2 protein (23 kD, aa 1-183) (human). Description: SPR.
Assay [4] deals with ⍺4β7. Description: SPR: inhibition by linear peptides of soluble ⍺4β7 binding to a CD4 D1D2 coated surface. Conditions: for inhibition of ⍺4β7 binding to D1D2 (in words): SPR, Fig 7B, 7D, S5 Fig; for inhibition of ⍺4β7 binding to CD4 D1D2 coated surface: SPR peptide scan (Fig 4A), ⍺4β7 pre-incubated with peptide 2 hours at room temperature, 1 mM MnCl2. From the text:
We next modified our SPR -based assay in order to map the site(s) on CD4 that interacts with ⍺4β7. In this modified assay ⍺4β7 was passed over a surface coated with CD4 D1D2 in the absence or presence of 42 overlapping 15 amino acid linear peptides spanning CD4 residues 1–178 (S2 Table). Two peptides located in CD4 D1, #7 and #9, inhibited ⍺4β7 binding by ~17% (Fig 4A). The final peptide in CD4 D2, p42, inhibited binding by ~ 66%. Linear peptides often lack the true conformation of the protein from which they are derived. Additionally, the kinetic format of our assay allows for ligand-analyte rebinding during the association phase. These features render this inhibition assay somewhat insensitive. Nevertheless, the dynamic range of this assay is sufficient to identify interactions that are worthy of follow-up investigation (S4 Fig). As such, our preliminary findings raised the possibility that both D1 and D2 domains of CD4 interact with ⍺4β7. Of note, MAdCAM-1 and VCAM-1, like CD4, present two tandemly arrayed N-terminal IgSF domains (Fig 4B). In both cases, binding to ⍺4β7 is mediated by a 1° binding site in their D1s and an accessory site, located in their D2s. The term accessory is a misnomer insofar as these sites plays an essential role in ⍺4β7 binding. Follow-up experiments focused on p9 and p42, which we herein refer to as pCD4^33-47 and pCD4^165-178. pCD4^33-47 partially overlaps the D1 C’C” β-strands and a connecting loop. The primary gp120 contact site (Phe^43) lies at the N-terminal edge of this loop (Fig 4C). pCD4^165-178 includes Q^165 and K^166. These residues lie primarily within the G β-strand of D2, close to the boundary with D3. Because peptide inhibition assays sometime mediate nonspecific effects, further analysis was performed to better establish the role of these two regions of CD4 in binding to ⍺4β7.
To determine if this is the case, we employed an SPR -based assay. Biosensor surfaces were coated with either CD4 D1D2 or a 42 aa cyclic V2 peptide derived from the subtype E 92TH023 gp120 (cV2 92TH023). A third surface coated with MAdCAM-Ig was employed as a positive control. Soluble ⍺4β7 was passed over these surfaces. We then evaluated the capacity of staggered 15 aa peptides that span either CD4 D2 or gp120 V2 to inhibit this interaction (Fig 7A).
Experiments were performed using a Biacore 3000 instrument (Cytiva Life Sciences) using CM4 or CM5 sensor chips. The data were evaluated using BIAevaluation 4.1.1 software (Cytiva Life Sciences). The chip surface was activated by injecting 35 μl of a 1:1 mixture of 0.05 M N-hydroxysuccinimide and 0.2 M N-ethyl-N-(dimethylaminopropyl) carbodiimide at 5 μl/min. NeutrAvidin, HIV gp120, sCD4 (D1D2) or Hu-MAdCAM-Ig (R&D Systems) at concentrations of 5 μg/ml in 10mM NaOAc, pH 4.5, were immobilized to 250–750 resonance units (RU). After the proteins were immobilized to the desired densities, unreacted sites were blocked with 35 μl of 1 M Tris-HCl (pH 8.0). Biotinylated cyclic V2 peptides (1 μg/ml in 20 mM Tris-HCl, pH 8.0) were bound to the NeutrAvidin surfaces to densities of approximately 250–300 RU. One surface was activated and blocked without ligand as a control surface for non-specific binding. Signal from the control surface was subsequently subtracted. Running buffer was HBS (pH 7.4), 1 mM MnCl2, 0.005% Tween- 20, 0.05% soluble carboxymethyl-dextran. Binding experiments were carried out at a flow rate of 25 μl/min at 25°C. After a 2 min injection, the surface was washed for an additional 2 min in running buffer allowing dissociation of the bound ligand from the surface. The surfaces were regenerated by multiple injections of 4.5 M MgCl2 at a flow rate of 100 μl/min. Inhibition of ⍺4β7 binding by linear V2-loop and CD4 derived peptides was carried out by pre-incubating ⍺4β7 with the peptides in running buffer at the indicated concentrations for 2 hours at room temperature prior to passing them over the prepared surfaces as described above. […]

The target in assay [5] is T1, soluble α4β7 (recombinant integrin α4β7) (UniProt P13612 35-977; P26010 20-723).
T1 construct: also called integrin ⍺4β7; recombinant ⍺4β7
Kind of assay: SPR. Conditions: both partners purified.

The term Kd denotes the equilibrium constant for the complex coming apart. For orientation: koff means the first-order rate constant of dissociation. Usually kon stands for the rate constant with which the complex forms. As to “soluble α4β7 (recombinant integrin α4β7) (from UniProt P13612 35-977; P26010 20-723) (complex)”, in assay [1], the Ka turned out to be 7.47e+08 M⁻¹, the Kd is 1.34 nM, the koff was determined as 0.00112 s⁻¹ and the kon came to 840000 M⁻¹ s⁻¹. In assay [2], the Ka came to 1.01e+09 M⁻¹, the Kd was 0.994 nM, the koff amounted to 0.00136 s⁻¹ and the kon is 1.37e+06 M⁻¹ s⁻¹. In assay [3], this molecule had a Ka of 2.8e+08 M⁻¹, a koff of 0.000464 s⁻¹ and a kon of 130000 M⁻¹ s⁻¹.
For the molecule “VEFKIDIVVLAFQK [CD4 P43, overlapping linear CD4 D2 peptide]”, the “inhibition of ⍺4β7 binding to D1D2 (in words)” value (“inhibition … (in words)” for short) in assay [4] was “reduced inhibition relative to pCD4^165-178”.
As for “QIKILGNQGSFLTKG [CD4 P9, linear CD4 D1 peptide overlapping the C'C'' β-strands and connecting loop]”, the “inhibition of ⍺4β7 binding to CD4 D1D2 coated surface” value in assay [4] is on record as ~ 17%.
With “IVVLAFQKASSIVY [CD4 P45, overlapping linear CD4 D2 peptide]”, in assay [4], the “inhibition … (in words)” value is on record as “unable to inhibit”.
For the molecule “QFHWKNSNQIKILGN [CD4 P7, overlapping linear CD4 peptide, CD4 D1]”, the “inhibition of ⍺4β7 binding to CD4 D1D2 coated surface” value in assay [4] is reported as ~ 17%.
Consider “KIDIVVLAFQKASS [CD4 P44, overlapping linear CD4 D2 peptide]”, for which the “inhibition … (in words)” value in assay [4] is recorded as “unable to inhibit”.

B1: MAdCAM-Ig (Fc fusion, human, UniProt Q13477 19-317, looked up)
chain: QSLQVKPLQVEPPEPVVAVALGASRQLTCRLACADRGASVQWRGLDTSLGAVQSDTGRSVLTVRNASLSAAGTRVCVGSCGGRTFQHTVQLLVYAFPDQLTVSPAALVPGDPEVACTAHKVTPVDPNALSFSLLVGGQELEGAQALGPEVQEEEEEPQGDEDVLFRVTERWRLPPLGTPVPPALYCQATMRLPGLELSHRQAIPVLHSPTSPEPPDTTSPESPDTTSPESPDTTSQEPPDTTSPEPPDKTSPEPAPQQGSTHTPRSPGSTRTRRPEISQAGPTQGEVIPTGSSKPAGDQ
notes: also called Hu-MAdCAM-Ig; recombinant MAdCAM-Ig
In the case of B1, in assay [5], the Ka turned out to be 1.12e+08 M⁻¹, the Kd turned out to be 8.92 nM, the koff stood at 0.000863 s⁻¹ and the kon turned out to be 96700 M⁻¹ s⁻¹.

B2: VCAM-Ig (Fc fusion, UniProt P19320 25-698, looked up)
chain: FKIETTPESRYLAQIGDSVSLTCSTTGCESPFFSWRTQIDSPLNGKVTNEGTTSTLTMNPVSFGNEHSYLCTATCESRKLEKGIQVEIYSFPKDPEIHLSGPLEAGKPITVKCSVADVYPFDRLEIDLLKGDHLMKSQEFLEDADRKSLETKSLEVTFTPVIEDIGKVLVCRAKLHIDEMDSVPTVRQAVKELQVYISPKNTVISVNPSTKLQEGGSVTMTCSSEGLPAPEIFWSKKLDNGNLQHLSGNATLTLIAMRMEDSGIYVCEGVNLIGKNRKEVELIVQEKPFTVEISPGPRIAAQIGDSVMLTCSVMGCESPSFSWRTQIDSPLSGKVRSEGTNSTLTLSPVSFENEHSYLCTVTCGHKKLEKGIQVELYSFPRDPEIEMSGGLVNGSSVTVSCKVPSVYPLDRLEIELLKGETILENIEFLEDTDMKSLENKSLEMTFIPTIEDTGKALVCQAKLHIDDMEFEPKQRQSTQTLYVNVAPRDTTVLVSPSSILEEGSSVNMTCLSQGFPAPKILWSRQLPNGELQPLSENATLTLISTKMEDSGVYLCEGINQAGRSRKEVELIIQVTPKDIKLTAFPSESVKEGDTVIISCTCGNVPETWIILKKKAETGDTVLKSIDGAYTIRKAQLKDAGVYECESKNKVGSQLRSLTLDVQGRENNKDYFSPE
notes: also called recombinant VCAM-Ig
As for B2, in assay [5], the Ka turned out to be 2.76e+07 M⁻¹, the Kd was found to be 36.3 nM, the koff is 0.00141 s⁻¹ and the kon worked out at 38700 M⁻¹ s⁻¹.
